In the test the target is HLA-A2-… complex on cells (human). The test can be described thus: cell-based or functional assay.

From patent US20140296492A1 come the findings set out here.

anti-HLA-A2 antibody BB7.2: the blocking of WT1 Clone 45 CAR-mediated cytotoxicity against …-pulsed DIMT BLCL (51Cr release), antibody at 5 µg/ml turned out to be 45%.
